Assay results published in patent US20200123233A1.
“And” between values parts separate entries of the source, which are not always exact repeats. Equal entries are not always repeated.

What was measured:
[1] = substrate: F protein of hRSV strain B-1 (human respiratory syncytial virus, strain B-1 (ATCC VR-1580)) (UniProt P13843); test: cell-based or functional assay
[2] = substrate: F protein of hRSV strain Long (human respiratory syncytial virus, strain Long (ATCC VR-26)) (UniProt P12568); test: cell-based or functional assay
[3] = target: Rabies virus glycoprotein G, Challenge Virus Standard (CVS)-11 strain (Rabies virus, strain CVS-11 (genotype 1 Lyssavirus)) (UniProt O92284); test: cell-based or functional assay
[4] = target: Rabies virus glycoprotein G, ERA strain (attenuated vaccine strain, ATCC VR332) (Rabies virus, ERA strain (genotype 1 lyssavirus)) (UniProt P03524); test: cell-based or functional assay
[5] = target: Rabies virus glycoprotein G, strain CVS-11 (ATCC VR 959) (Rabies virus, strain CVS-11 (genotype 1)); test: cell-based or functional assay
[6] = target: recombinant his-tagged HA0 trimer from H5N1 strain A/Anhui/1/2005 (Abcam, Cat. No. ab53938) (influenza A virus A/Anhui/1/2005 (H5N1)); test: ELISA on recombinant haemagglutinin, detection with rabbit anti-NANOBODY serum
[7] = target: recombinant his6-tagged haemagglutinin HA1, Abcam ab53875; test: as above

B1: NC41 (VHH)
VHH: EVQLVESGGGLVQAGGSLSISCAASGGSLSNYVLGWFRQAPGKEREFVAAINWRGDITIGPPNVEGRFTISRDNAKNTGYLQMNSLAPDDTAVYYCGAGTPLNPGAYIYDWSYDYWGRGTQVTVSS
- Neutralization IC50 (nM), B-1 (first assay) [1]: 4710 nM
- Neutralization IC50 (nM), B-1 (second assay) [1]: 3290 nM
- Neutralization IC50 (nM), Long (first assay) [2]: 202 nM
- Neutralization IC50 (nM), Long (second assay) [2]: 122 nM

B2: NC41v03 (VHH)
VHH: EVQLLESGGGLVQPGGSLRISCAASGGSLSNYVLGWFRQAPGKGREFVAAINWRGDITIGPPNVEGRFTISRDNSKNTLYLQMNSLRPEDTAVYYCGAGTPLNPGAYIYDWSYDYWGQGTLVTVSS
- Neutralization IC50 (nM), B-1 (first assay) [1]: 1510 nM
- Neutralization IC50 (nM), Long (first assay) [2]: 255 nM

B3: NC41v06 (VHH)
VHH: EVQLLESGGGLVQPGGSLRLSCAASGGSLSNYVLGWFRQAPGKGREFVAAINWRDDITIGPPNVEGRFTISRDNAKNTLYLQMNSLRPEDTAVYYCGAGTPLNPGAYIYDWSYDYWGQGTLVTVSS
- Neutralization IC50 (nM), B-1 (first assay) [1]: 806 nM
- Neutralization IC50 (nM), Long (first assay) [2]: 111 nM

B4: NC41v18 (VHH)
VHH: EVQLLESGGGLVQPGGSLRLSCAASGGSLSNYVLGWFRQAPGKGREFVAAINWRDDITIGPPNVEGRFTISRDNSKNTLYLQMNSLRPEDTAVYYCGAGTPLNPGAYIYDWSYDYWGQGTLVTVSS
- Neutralization IC50 (nM), B-1 (first assay) [1]: 728 nM
- Neutralization IC50 (nM), B-1 (second assay) [1]: 194 nM
- Neutralization IC50 (nM), Long (first assay) [2]: 116 nM
- Neutralization IC50 (nM), Long (second assay) [2]: 98 nM

B5: LG214E8 (VHH)
VHH: EVQLVESGGGSVQAGGSLRLSCAASGGTFNPYVMAWFRQAPGNEREFVARIRWSGGDAYYDDSVKGRFAITRDAAKNTVHLQMNSLKPEDTAVYYCAAATYGYGSYTYGGSYDLWGQGTQVTVSS
- CVS-11 neutralizing antibody titer (RFFIT), IU/mg [3]: 9.37 IU/mg
- CVS-11 neutralizing antibody titer (RFFIT), IU/ml [3]: 4.87 IU/ml
- CVS-11 neutralizing antibody titer (RFFIT), IU/µM [3]: 0.14 IU/µM
- CVS-11 neutralizing antibody titer (RFFIT), nM IC50 [3]: 249 nM
- ERA neutralizing antibody titer (RFFIT): EU/mg [4]: < 0.96 EU/mg
- ERA neutralizing antibody titer (RFFIT): EU/ml [4]: < 0.5 EU/ml
- ERA neutralizing antibody titer (RFFIT): EU/µM [4]: < 0.02 EU/µM
- ERA neutralizing antibody titer (RFFIT): nM IC50 [4]: > 3870 nM
- CVS neutralizing antibody titer: IU/mg [5]: 14.2 IU/mg and 10.1 IU/mg and 6.12 IU/mg
- CVS neutralizing antibody titer: IU/ml [5]: 7.38 IU/ml and 5.26 IU/ml and 3.18 IU/ml
- CVS neutralizing antibody titer: IU/µM [5]: 0.21 IU/µM and 0.15 IU/µM and 0.09 IU/µM
- CVS neutralizing antibody titer: nM IC50 [5]: 124 nM and 196 nM and 323 nM

B6: LG213E6 (VHH)
VHH: EVQLVESGGGLVQAGASLRLSCAASGSTLSRYGVGWFRQAPGKERELVASVDWSGSRTYYADSVKGRFTISRDNAKNTGYLQMNSLKPDDTAVYYCAADSSVVPGIEKYDDWGLGTQVTVSS
- CVS-11 neutralizing antibody titer (RFFIT), IU/mg [3]: 170 IU/mg
- CVS-11 neutralizing antibody titer (RFFIT), IU/ml [3]: 112 IU/ml
- CVS-11 neutralizing antibody titer (RFFIT), IU/µM [3]: 2.54 IU/µM
- CVS-11 neutralizing antibody titer (RFFIT), nM IC50 [3]: 13.7 nM
- ERA neutralizing antibody titer (RFFIT): EU/mg [4]: 155 EU/mg
- ERA neutralizing antibody titer (RFFIT): EU/ml [4]: 288 EU/ml
- ERA neutralizing antibody titer (RFFIT): EU/µM [4]: 2.31 EU/µM
- ERA neutralizing antibody titer (RFFIT): nM IC50 [4]: 14.4 nM
- CVS neutralizing antibody titer: IU/mg [5]: 65.8 IU/mg and 83.8 IU/mg and 98.3 IU/mg
- CVS neutralizing antibody titer: IU/ml [5]: 98.6 IU/ml and 156 IU/ml and 183 IU/ml
- CVS neutralizing antibody titer: IU/µM [5]: 0.98 IU/µM and 1.25 IU/µM and 1.47 IU/µM
- CVS neutralizing antibody titer: nM IC50 [5]: 33.6 nM and 23.7 nM and 20.2 nM

B7: LG213H7 (VHH)
VHH: EVQLVESGGGLVQAGGSLRLSCAASGRTLSSYRMGWFRQAPGKEREFISTISWNGRSTYYADSVKGRFIFSEDNAKNTVYLQMNSLKPEDTAVYYCAAALIGGYYSDVDAWSYWGPGTQVTVSS
- CVS-11 neutralizing antibody titer (RFFIT), IU/mg [3]: 12.2 IU/mg
- CVS-11 neutralizing antibody titer (RFFIT), IU/ml [3]: 1.71 IU/ml
- CVS-11 neutralizing antibody titer (RFFIT), IU/µM [3]: 0.18 IU/µM
- CVS-11 neutralizing antibody titer (RFFIT), nM IC50 [3]: 191 nM
- ERA neutralizing antibody titer (RFFIT): EU/mg [4]: 87.4 EU/mg
- ERA neutralizing antibody titer (RFFIT): EU/ml [4]: 12.2 EU/ml
- ERA neutralizing antibody titer (RFFIT): EU/µM [4]: 1.3 EU/µM
- ERA neutralizing antibody titer (RFFIT): nM IC50 [4]: 25.6 nM
- CVS neutralizing antibody titer: IU/mg [5]: 30.1 IU/mg and 12.6 IU/mg
- CVS neutralizing antibody titer: IU/ml [5]: 4.22 IU/ml and 1.76 IU/ml
- CVS neutralizing antibody titer: IU/µM [5]: 0.45 IU/µM and 0.19 IU/µM
- CVS neutralizing antibody titer: nM IC50 [5]: 62.5 nM and 156 nM

B8: IV131 (VHH)
VHH: QVQLQQSGGGLVQAGGSLRLSCAASGSGFSFNPMGWYRQAPGKQRELVASITSGGTTNYVDSVKGRFTISRGNAKNTVYLQMNSLKPEDTAVYYCAAEGPRRRGSTWYTDNYWGQGTQVTVSS
- ELISA titer (NANOBODY concentration giving extinction 1) [6]: 36.8 ng/mL
- ELISA titer (NANOBODY concentration giving extinction 1) [7]: 32 ng/mL

B9: IV133 (VHH)
VHH: QVQLQQSGGGLVQPGGSLRLSCAASSSGFSFNPMGWYRQAPGKQRELVATMTSGGTTNYADSVKGRFTISRDNAKTTVYLQMNSLKPEDTAVYYCNARGPRRATTGWITDDYWGQGTQVTVSS
- ELISA titer (NANOBODY concentration giving extinction 1) [6]: 39.1 ng/mL
- ELISA titer (NANOBODY concentration giving extinction 1) [7]: 32.5 ng/mL

B10: IV144 (VHH)
VHH: QVQLQQSGGGLVQAGGSLRLSCAASGNIISFNPMGWHRQAPGKQRELVASITSGGSISYVDSVKGRFTISRDSAKNTIYLQMNSLKPEDTAVYFCAGEGPRRRGSTWYTDTYWGQGTQVTVSS
- ELISA titer (NANOBODY concentration giving extinction 1) [6]: 33.1 ng/mL
- ELISA titer (NANOBODY concentration giving extinction 1) [7]: 34.8 ng/mL

B11: IV156 (VHH)
VHH: QVQLQQSGGGLVQPGGSLRLSCAASRSGFSFNPMGWYRQAPGKQRELVATITSGGTTNYADSVKGRFTISTDNAKTTVFLQMNSLKPEDTAVYYCNGRGPRRGTAGWFTDDYWGQGTQVTVSS
- ELISA titer (NANOBODY concentration giving extinction 1) [6]: 51.9 ng/mL
- ELISA titer (NANOBODY concentration giving extinction 1) [7]: 33 ng/mL
